Experimental data reported in patent US7807629 (ALCON RESEARCH, dated 2010).
Square brackets hold non-standard residues; d marks the D form. Ends that are not written are not given here. Hyp = O=C(O)[C@@H]1C[C@@H](O)CN1

Target: T1, human bradykinin B2 receptor (human, UniProt P30411 1-391)
T1 sequence (looked up): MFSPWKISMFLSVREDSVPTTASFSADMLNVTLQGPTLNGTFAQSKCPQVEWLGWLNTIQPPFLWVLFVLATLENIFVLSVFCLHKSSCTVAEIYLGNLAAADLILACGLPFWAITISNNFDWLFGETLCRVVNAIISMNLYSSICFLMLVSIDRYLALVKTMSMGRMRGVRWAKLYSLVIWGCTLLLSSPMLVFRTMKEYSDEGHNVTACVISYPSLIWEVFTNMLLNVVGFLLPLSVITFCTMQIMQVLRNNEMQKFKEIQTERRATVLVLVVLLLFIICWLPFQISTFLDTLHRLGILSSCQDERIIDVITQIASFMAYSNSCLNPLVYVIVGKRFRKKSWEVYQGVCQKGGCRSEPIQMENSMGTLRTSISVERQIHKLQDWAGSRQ
Test: cell-based or functional assay

Binder | [Ca^2+]i mobilization, Agonist Potency (EC50), h-CM cells | [Ca^2+]i mobilization, Agonist Potency (EC50), h-NPE cells | [Ca^2+]i mobilization, Agonist Potency (EC50), h-TM cells
KRPPGFSPFR [Lys-BK] | 3.2 nM | 19.6 nM | 1.9 nM
RP[Hyp]GFSPFR [Hyp^3-BK] |  | 6 nM | 0.9 nM
MKRPPGFSPFR [Met-Lys-BK] | 16.1 nM | 125 nM | 6.5 nM
